For six molecules, Kd results are on record in US20260070987A1.

First the molecules themselves.
B1: equine IgG4 M428E (antibody, part only; not given: variable domains, not shown: another chain or arm of the molecule)
constant: ASTTAPKVFPLASHSAATSGSTVALGCLVSSYFPEPVTVSWNSGALTSGVHTFPSVLQSSGLYSLSSMVTVPASSLKSQTYICNVAHPASSTKVDKKIVIKECNGGCPAECLQVGPSVFIFPPKPKDVLMISRTPTVTCVVVDVGHDFPDVQFNWYVDGVETHTATTEPKQEQFNSTYRVVSVLPIQHKDWLSGKEFKCKVNNKALPAPVERTISKPTGQPREPQVYVLAPHRDELSKNKVSVTCLVKDFYPTDIDIEWKSNGQPEPETKYSTTPAQLDSDGSYFLYSKLTVETNRWQQGTTFTCAVEHEALHNHYTEKSVSKSPGK
B2: equine IgG4 M428H (antibody, part only; not given: variable domains, not shown: another chain or arm of the molecule)
constant: ASTTAPKVFPLASHSAATSGSTVALGCLVSSYFPEPVTVSWNSGALTSGVHTFPSVLQSSGLYSLSSMVTVPASSLKSQTYICNVAHPASSTKVDKKIVIKECNGGCPAECLQVGPSVFIFPPKPKDVLMISRTPTVTCVVVDVGHDFPDVQFNWYVDGVETHTATTEPKQEQFNSTYRVVSVLPIQHKDWLSGKEFKCKVNNKALPAPVERTISKPTGQPREPQVYVLAPHRDELSKNKVSVTCLVKDFYPTDIDIEWKSNGQPEPETKYSTTPAQLDSDGSYFLYSKLTVETNRWQQGTTFTCAVHHEALHNHYTEKSVSKSPGK
B3: equine IgG4 M428F (antibody, part only; not given: variable domains, not shown: another chain or arm of the molecule)
constant: ASTTAPKVFPLASHSAATSGSTVALGCLVSSYFPEPVTVSWNSGALTSGVHTFPSVLQSSGLYSLSSMVTVPASSLKSQTYICNVAHPASSTKVDKKIVIKECNGGCPAECLQVGPSVFIFPPKPKDVLMISRTPTVTCVVVDVGHDFPDVQFNWYVDGVETHTATTEPKQEQFNSTYRVVSVLPIQHKDWLSGKEFKCKVNNKALPAPVERTISKPTGQPREPQVYVLAPHRDELSKNKVSVTCLVKDFYPTDIDIEWKSNGQPEPETKYSTTPAQLDSDGSYFLYSKLTVETNRWQQGTTFTCAVFHEALHNHYTEKSVSKSPGK
B4: equine IgG4 M428G (antibody, part only; not given: variable domains, not shown: another chain or arm of the molecule)
constant: ASTTAPKVFPLASHSAATSGSTVALGCLVSSYFPEPVTVSWNSGALTSGVHTFPSVLQSSGLYSLSSMVTVPASSLKSQTYICNVAHPASSTKVDKKIVIKECNGGCPAECLQVGPSVFIFPPKPKDVLMISRTPTVTCVVVDVGHDFPDVQFNWYVDGVETHTATTEPKQEQFNSTYRVVSVLPIQHKDWLSGKEFKCKVNNKALPAPVERTISKPTGQPREPQVYVLAPHRDELSKNKVSVTCLVKDFYPTDIDIEWKSNGQPEPETKYSTTPAQLDSDGSYFLYSKLTVETNRWQQGTTFTCAVGHEALHNHYTEKSVSKSPGK
B5: equine IgG4 M428K (antibody, part only; not given: variable domains, not shown: another chain or arm of the molecule)
constant: ASTTAPKVFPLASHSAATSGSTVALGCLVSSYFPEPVTVSWNSGALTSGVHTFPSVLQSSGLYSLSSMVTVPASSLKSQTYICNVAHPASSTKVDKKIVIKECNGGCPAECLQVGPSVFIFPPKPKDVLMISRTPTVTCVVVDVGHDFPDVQFNWYVDGVETHTATTEPKQEQFNSTYRVVSVLPIQHKDWLSGKEFKCKVNNKALPAPVERTISKPTGQPREPQVYVLAPHRDELSKNKVSVTCLVKDFYPTDIDIEWKSNGQPEPETKYSTTPAQLDSDGSYFLYSKLTVETNRWQQGTTFTCAVKHEALHNHYTEKSVSKSPGK
B6: equine IgG4 M428I (antibody, part only; not given: variable domains, not shown: another chain or arm of the molecule)
constant: ASTTAPKVFPLASHSAATSGSTVALGCLVSSYFPEPVTVSWNSGALTSGVHTFPSVLQSSGLYSLSSMVTVPASSLKSQTYICNVAHPASSTKVDKKIVIKECNGGCPAECLQVGPSVFIFPPKPKDVLMISRTPTVTCVVVDVGHDFPDVQFNWYVDGVETHTATTEPKQEQFNSTYRVVSVLPIQHKDWLSGKEFKCKVNNKALPAPVERTISKPTGQPREPQVYVLAPHRDELSKNKVSVTCLVKDFYPTDIDIEWKSNGQPEPETKYSTTPAQLDSDGSYFLYSKLTVETNRWQQGTTFTCAVIHEALHNHYTEKSVSKSPGK

The target of this experiment is equine FcRn (large alpha subunit p51) / equine beta-2-microglobulin complex, biotinylated (equine) (UniProt P30441). Description: SPR (Biacore), pH 6.
Chain of UniProt P30441 (P30441 21-118, one chain of several): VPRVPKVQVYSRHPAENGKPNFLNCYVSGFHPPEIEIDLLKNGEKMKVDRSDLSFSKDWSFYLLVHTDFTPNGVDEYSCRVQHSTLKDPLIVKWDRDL
B1 showed an equilibrium dissociation constant (Kd) of 40.8 nM.

As to B2, the dissociation constant Kd came out at 29.4 nM.

The molecule B3 returned a Kd of 25.4 nM.

Take B4: the Kd was 31.5 nM.

Regarding B5, the dissociation constant (Kd) came out at 46.2 nM.

For B6, the Kd came out at 49.5 nM.
